Experimental data published in patent US20120284877.
Changes are numbered by the printed parent chain.

Experiments:
Assay in all cases: cell_activity
Conditions in all cases: A. thaliana GUS recombination
[1] = molecular target: T1, NLS-I-SceI C term mod #1-AlcR(1-60) (VC-SAH128-3, SAH126-1) (Saccharomyces cerevisiae / Aspergillus nidulans) (UniProt P03882)
T1 sequence: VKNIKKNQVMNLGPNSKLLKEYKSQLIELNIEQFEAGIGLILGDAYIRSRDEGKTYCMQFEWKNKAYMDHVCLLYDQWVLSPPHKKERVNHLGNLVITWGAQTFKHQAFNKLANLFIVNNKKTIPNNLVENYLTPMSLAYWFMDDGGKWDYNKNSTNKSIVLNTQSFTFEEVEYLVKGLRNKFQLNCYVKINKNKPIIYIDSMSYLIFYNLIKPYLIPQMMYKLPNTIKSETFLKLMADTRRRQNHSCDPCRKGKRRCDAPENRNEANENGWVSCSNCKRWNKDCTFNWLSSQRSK

[2] = molecular target: T2, NLS-I-SceI-AlcR(1-60) (VC-SAH48-8, VC-SAH91-1) (Saccharomyces cerevisiae / Aspergillus nidulans) (UniProt P03882)
T2 sequence: T1 sequence with K229S

[3] = molecular target: T3, NLS-I-SceI C term mod #2-AlcR(1-60) (VC-SAH129-1, SAH127-1) (Saccharomyces cerevisiae / Aspergillus nidulans) (UniProt P03882)
T3 sequence: T1 sequence with T227A, K229A, S230N, E231Q, T232A

AGCGGCCGCCTAGGGATCCGACAGGTTACGGGGCGGCGACCTCGCGGGTTTTCGCTATTTATGAAAATTTTCCGGTTTAAGGCGTTTCCGTTCTTCTTCGTCATAACTTAATGTTTTTATTTAAAATACCCTCTGAAAAGAAAGGAAACGACAGGTGCATTACCCTGTTATCCCTAGCGGATCCGCACGTTATCCCTAGCGGATCCGCACGTTATCCCTAT (double strand) [combined target site VC-SAH55-22 (#55)]
activity (% blue plants) [1]: 100
activity (% blue plants) [2]: 49
activity (% blue plants) [3]: 76
